This is an account of results in patent publication US5541288A, “Peptide having elastase inhibitory activity and producing method thereof” (Nissin Shokuhin Kabushiki Kaisha, priority 1993, dated 1996).

Read-outs that look alike come from different tables or passages of the source.

Holding throughout (type): biochemical
Series [1] deals with T1, human neutrophil elastase (Homo sapiens, UniProt P08246).
T1 sequence (P08246 30-267): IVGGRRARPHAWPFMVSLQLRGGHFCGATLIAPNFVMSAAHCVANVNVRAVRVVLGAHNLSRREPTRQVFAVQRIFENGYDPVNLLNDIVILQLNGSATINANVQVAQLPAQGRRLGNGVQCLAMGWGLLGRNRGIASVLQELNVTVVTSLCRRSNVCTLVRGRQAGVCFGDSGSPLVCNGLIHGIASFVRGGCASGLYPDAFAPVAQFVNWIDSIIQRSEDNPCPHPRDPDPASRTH
Nature of the series: Determination of Ki value against human neutrophil elastase (fluorogenic substrate MeOSuc-Ala-Ala-Pro-Val-7AMC). The conditions noted are these: 30° C., pH 7.5, purified peptides with recovered activity, read-out: Inhibitory Activity against Human Neutrophil Elastase Ki. The method, then: Determination of Ki value of the samples of purified peptides of Example 7 against human neutrophil elastase was accomplished as follows.
10 μl of solution of human neutrophil elastase (Attends Research), (the concentration of which was adjusted to 25 μM with the following buffer), and 10 μl of test sample (the concentration of which was appropriately adjusted) were added to buffer containing 30 μl of 100 mM Tris-HCl (pH 7.5), 500 mM NaCl, 0.01% BSA, and left for 20 minutes at 30° C. Then, 200 μl of MeOSuc-Ala-Ala-Pro-Val-7AMC solution (Cambridge Research Biochemicals) containing 1% dimethyl-sulfoxide (hereinafter referred to as "DMSO") was added to the mixture to adjust the concentration thereof to 0.2 mM, 0.3 mM and 0.4 mM, and reacted at 30° C. Fluorescence at 450 nm excited at 365 nm was measured over 0 to 3 minutes with a spectrophotofluorometer (F-3000, HITACHI), and an initial reaction velocity was calculated. Ki value was determined by preparing a graph having a vertical axis of the reciprocal of initial reaction velocity and a horizontal axis of sample concentration, and then plotting on the graph lines for each of the three substrate concentrations and reading the intersection point of the three lines so obtained.

Series [2] concerns the target T2, bovine pancreas trypsin (Bos taurus, UniProt P00760).
T2 construct: purchased Washington Biochemicals; host or cells: bovine pancreas
T2 sequence (P00760 24-246): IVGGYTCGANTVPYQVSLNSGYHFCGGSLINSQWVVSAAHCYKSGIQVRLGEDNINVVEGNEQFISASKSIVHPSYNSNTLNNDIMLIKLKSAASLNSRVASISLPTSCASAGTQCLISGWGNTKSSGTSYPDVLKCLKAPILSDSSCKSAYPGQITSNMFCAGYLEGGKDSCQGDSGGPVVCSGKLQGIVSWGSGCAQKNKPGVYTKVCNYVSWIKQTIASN
The series can be described thus: Determination of Ki value against bovine pancreas trypsin (substrate Bz-DL-Arg-pNA). The conditions noted are these: 30° C., pH 8.0. The method, then:
Furthermore, the Ki value against trypsin was determined as follows.
Firstly, buffer containing 20 μl of 10 mM CaCl2, 50 mM Tris-HCl (pH 8.0) was mixed with 10 μl of test sample (1.2~6 μM) and 10 μl of 4.2 μM bovine pancreas trypsin solution (prepared by dissolving bovine pancreas trypsin in 1 mM HCl; Washington Biochemicals), and incubated at 30° C. for three minutes. 110 μl of 1M Tris-HCl (pH 8.0) buffer containing 100 mM CaCl2 was added to this solution, then 350 μl of any of 0.6 mM, 1.2 mM and 2.3 mM Bz-DL-Arg-pNA.HCl (Nakaraitesk) solution (containing 10% DMSO) was added, and reacted at 30° C. Change on absorbance at 405 nm over time was recorded, and the initial reaction velocity of the enzyme was determined therefrom. Then, the Ki value against trypsin was determined according to a procedure which was similar to the procedure for human neutrophil elastase above.

Series [3] addresses T1, human neutrophil elastase. The series can be described thus: Resistance against oxidizer: inhibitory rate against human neutrophil elastase after treatment with chloro-succinate-imide. As to conditions: for Inhibitory Rate against Human Neutrophil Elastase (%): amount of inhibitor 20 p mole. As to the method: 5 μl of peptide sample, the concentration of which was adjusted appropriately, was mixed with 5 μl of 5 mM chloro-succinate-imide [prepared by dissolving chloro-succinate-imide (Nakaraitesk) in 100 mM Tris-HCl (pH 7.5) buffer containing 500 mM NaCl], then left for 10 minutes at room temperature, and then treated with the oxidizer. Then, 5 μl of human neutrophil elastase, concentration of which was adjusted with said buffer, and 35 μl of said buffer were further added thereto, and left for 15 minutes at 30° C. 450 μl of MeOSuc-Ala-Ala-Pro-Val-pNA (Cambridge Research Bio-Chemicals) solution (containing 1% DMSO), the concentration of which was adjusted to 0.1 mM with said buffer, was added thereto and further reacted for 30 minutes at 30° C. 40 μl of acetic acid was added and absorbance at 405 nm was measured. An inhibition against an activity of human neutrophil elastase in the samples treated with the oxidizer was indicated as an inhibitory rate (%) calculated by the following formula. [formula] A: Absorbance obtained from sample not containing inhibitor. B: Absorbance obtained from sample containing inhibitor.

With “R15: Recombinant HI-8 peptide (C-terminal domain Thr78-Leu143 of UTI) expressed by using the plasmid pCD17R15”, the Ki (usually a dissociation constant, usually derived from enzyme kinetics or from competition with a known ligand) in series [1] (listed as HI-8) is about 690 nM; in series [1] it was 690 nM; in series [2], 360 nM.

B1: Ulinastatin (protein, UniProt P02760 206-352, looked up)
Inter-alpha-trypsin inhibitor …: AVLPQEEEGSGGGQLVTEVTKKEDSCQLGYSAGPCMGMTSRYFYNGTSMACETFQYGGCMGNGNNFVTEKECLQTCRTVAACNLPIVRGPCRAFIQLWAFDAVKGKCVLFPYGGCQGNGNKFYSEKECREYCGVPGDGDEELLRFSN
modifications: Inter-alpha-trypsin inhibitor light chain
Turning to B1, the inhibitory constant (Ki) in series [1] came out at 120 nM; in series [2], 920 nM. The “Inhibitory Rate against Human Neutrophil Elastase (%)” value in series [3] (chloro-succinate-imide 0 mM) is listed as 72%; in series [3] (chloro-succinate-imide 2.5 mM), 5%. In addition, the “inhibitory activity against human neutrophil elastase under oxidizing conditions (in words)” value in series [3] (treated with oxidizer chloro-succinate-imide) was “oxidized and inactivated completely”.
